From paper PMC9713472 (2022) come the findings set out here.

Sequences and labels used below:
B1: AURKA-Venus WT [human] / TPX2 [human (endogenous in U2OS)] (parent complex)
chain 1: MDRSKENCISGPVKATAPVGGPKRVLVTQQFPCQNPLPVNSGQAQRVLCPSNSSQRIPLQAQKLVSSHKPVQNQKQKQLQATSVPHPVSRPLNNTQKSKQPLPSAPENNPEEELASKQKNEESKKRQWALEDFEIGRPLGKGKFGNVYLAREKQSKFILALKVLFKAQLEKAGVEHQLRREVEIQSHLRHPNILRLYGYFHDATRVYLILEYAPLGTVYRELQKLSKFDEQRTATYITELANALSYCHSKRVIHRDIKPENLLLGSAGELKIADFGWSVHAPSSRRTTLCGTLDYLPPEMIEGRMHDEKVDLWSLGVLCYEFLVGKPPFEANTYQETYKRISRVEFTFPDFVTEGARDLISRLLKHNPSQRPMLREVLEHPWITANSSKPSNCQNKESASKQS
chain 2: MSQVKSSYSYDAPSDFINFSSLDDEGDTQNIDSWFEEKANLENKLLGKNGTGGLFQGKTPLRKANLQQAIVTPLKPVDNTYYKEAEKENLVEQSIPSNACSSLEVEAAISRKTPAQPQRRSLRLSAQKDLEQKEKHHVKMKAKRCATPVIIDEILPSKKMKVSNNKKKPEEEGSAHQDTAEKNASSPEKAKGRHTVPCMPPAKQKFLKSTEEQELEKSMKMQQEVVEMRKKNEEFKKLALAGIGQPVKKSVSQVTKSVDFHFRTDERIKQHPKNQEEYKEVNFTSELRKHPSSPARVTKGCTIVKPFNLSQGKKRTFDETVSTYVPLAQQVEDFHKRTPNRYHLRSKKDDINLLPSKSSVTKICRDPQTPVLQTKHRARAVTCKSTAELEAEELEKLQQYKFKARELDPRILEGGPILPKKPPVKPPTEPIGFDLEIEKRIQERESKKKTEDEHFEFHSRPCPTKILEDVVGVPEKKVLPITVPKSPAFALKNRIRMPTKEDEEEDEPVVIKAQPVPHYGVPFKPQIPEARTVEICPFSFDSRDKERQLQKEKKIKELQKGEVPKFKALPLPHFDTINLPEKKVKNVTQIEPFCLETDRRGALKAQTWKHQLEEELRQQKEAACFKARPNTVISQEPFVPKKEKKSVAEGLSGSLVQEPFQLATEKRAKERQELEKRMAEVEAQKAQQLEEARLQEEEQKKEELARLRRELVHKANPIRKYQGLEIKSSDQPLTVPVSPKFSTRFHC

The experiment covers variants of B1. Put plainly: in situ proximity ligation assay (isPLA); mitotic U2OS cells, endogenous TPX2, n ≥ 10 cells; read off a plot.
chain 1 R371A, chain 1 L374A: the response is around 1.3 AU.

As to chain 1 R371A, the response is around 3 AU.

Turning to chain 1 L374I, the response was around 3.7 AU.

Take chain 1 S155R: the response is around 2.6 AU.
